Test results from US12427188B2, “Pyocyanine demethylases and related phenazine degrading agents compositions, methods and systems for interfering with viability of bacteria” (priority 2020, dated 2025).
“Also recorded” adds a separate entry of the source.

Assays:
[1] = Continuous spectrophotometric PYO demethylation assay (specific activity and kinetics of PodA); assay type: biochemical; conditions: for Activity over range of pH: PodA10 3 μM
Summary of the method: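 PodA (3 μM) with PYO (100 μM for specific activity; varied for kinetics) in 50 mM phosphate pH 6.0, 1% ethylene glycol, 25 °C; PYO loss followed at 690 nm every 10 s for 10 min. Rates from linear slope via ε 4,130 M^−1 cm^−1; Km, Vmax by Michaelis–Menten, kcat = Vmax/[E].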

Pseudomonas aeruginosa = test: Crystal violet biofilm assay; assay type: cell-based; conditions: 24 h incubation, protein added from the beginning
Experimental: Crystal violet assay. Pseudomonas aeruginosa grown overnight in LB were inoculated (1.5%, v/v) and grown for 24 h at 37° C. in 96-well round bottom plates in minimal medium (100 μL) with arginine (40 mM) as the sole carbon source. PodA was added with cells simultaneously and was present during growth and biofilm development. Planktonic cells were removed and attached cells were quantified with crystal violet staining (125 μL. 0.1% w/v), followed by washes with water and de-staining with an acetic acid (30%, v/v) mixture in water. Crystal violet was measured using a SpectraMax® M3 Microplate Reader (Molecular Devices) at an absorbance of 550 nm. Details of procedure were published previously (28)[43].

B1: PodA10: Designed PodA41-162 variant: A53N, I73T, A87V, M99V, A129T; SEQ ID NO: 4 (protein)
chain: MVTMTLDVKNDQVNKHDFGKPGMDVGDMDIFSDTLSVDGKQVGYDGGVCFFTNVTPDNPVTYCELTIHLDAGEIFARSLTPATLAPFTMTITGGTGEYANSKGELTVSGVATPDEKYELKLTK
[1]; LB and SCFM, PodA 3 μM
  catalytic efficiency in growth medium compared to buffer: No change
[1]; Michaelis-Menten kinetics, 3 μM protein
  catalytic efficiency compared with PodA^WT: slight increase in efficiency
[1]; PYO 50 μM, PodA variants 3 μM
  PYO demethylation activity relative to wild type: wild-type activity was maintained
[1]; PYO 100 μM
  Activity over range of pH: maintained activity over a large range of pH, with no observable preference between a pH of 5-9
[1]; PYO 100 μM, listed as PodA1041-162
  Activity over range of pH: maintained activity over a large range of pH, with no observable preference between a pH of 5.5 and 9
[1]; cystic fibrosis sputum range, 66 mM Na+, 15 mM K+
  Effect of salts (NaCl and KCl) on activity: not altered
[1]; pH 6, PodA 3 μM, PYO 100 μM
  Effect of slight increase in viscosity (ethylene glycol or glycerol 1% v/v) on activity: slight ad-vantage; also recorded: slight advantage
Pseudomonas aeruginosa
  biofilm attachment (crystal violet): biofilm attachment defect that was comparable to that achieved by WT PodA41-162
